Laboratory results reported in paper PMC11870023, “A facile assay for zDHHC palmitoyl transferase activation elucidates effects of mutation and modification” (Journal of Lipid Research, 2025).
Positions count from the first letter of the chain named. Names and notes keep the numbering of the source.

How the values were obtained:
[1] = substrate: CC(C)(COP(=O)(O)OP(=O)(O)OC[C@H]1O[C@@H](n2cnc3c(N)ncnc32)[C@H](O)[C@@H]1OP(=O)(O)O)[C@@H](O)C(=O)NCCC(=O)NCCSC(=O)CCCCCCCCCCCCCCCNc1ccc([N+](=O)[O-])c2nonc12; assay: auto-S-palmitoylation of HEK293 membranes, SDS-PAGE fluorescence normalised to tag Western blot; format: cell-based, Homo sapiens; details: pH 7.4, 37 °C, 2 min, labelled compound, covalent thioester at active-site Cys
From the text: auto-S-palmitoylation of HEK293 membranes, SDS-PAGE fluorescence normalised to tag Western blot on human zDHHC14 | A373Y mutation within the N-terminal cytoplasmic tail of zDHHC14 (Fig. 4A) had no effect

[2] = substrate: CC(C)(COP(=O)(O)OP(=O)(O)OC[C@H]1O[C@@H](n2cnc3c(N)ncnc32)[C@H](O)[C@@H]1OP(=O)(O)O)[C@@H](O)C(=O)NCCC(=O)NCCSC(=O)CCCCCCCCCCCCCCCNc1ccc([N+](=O)[O-])c2nonc12; assay: as above; format: cell-based, Homo sapiens; details: pH 7.4, 37 °C, 2 min, labelled compound, covalent thioester at active-site Cys; remark: listed apart in the source
From the text: auto-S-palmitoylation of HEK293 membranes, SDS-PAGE fluorescence normalised to tag Western blot on human zDHHC14 | L215S mutation within the third transmembrane segment of zDHHC14 (Fig. 4A) substantially diminished auto-S-palmitoylation

B1: human zDHHC14 (Homo sapiens; A373Y) (protein)
chain: MPPGGGGPMKDCEYSQISTHSSSPMESPHKKKKIAARRKWEVFPGRNKFFCNGRIMMARQTGVFYLTLVLILVTSGLFFAFDCPYLAVKITPAIPAVAGILFFFVMGTLLRTSFSDPGVLPRATPDEAADLERQIDIANGTSSGGYRPPPRTKEVIINGQTVKLKYCFTCKIFRPPRASHCSLCDNCVERFDHHCPWVGNCVGKRNYRFFYMFILSLSFLTVFIFAFVITHVILRSQQTGFLNALKDSPASVLEAVVCFFSVWSIVGLSGFHTYLISSNQTTNEDIKGSWSNKRGKENYNPYSYGNIFTNCCVALCGPISPSLIDRRGYIQPDTPQPAAPSNGITMYGATQSQSDMCDQDQCIQSTKFVLQAYATPLLQSEPSLTSDELHLPGKPGLGTPCASLTLGPPTPPASMPNLAEATLADVMPRKDEHMGHQFLTPDEAPSPPRLLAAGSPLAHSRTMHVLGLASQDSLHEDSVRGLVKLSSV
notes: full length, His6-Myc tag kept (pCEpuro-His6-Myc-1), HEK293 membrane fraction
- Km [1]: 1.72 ± 0.50 µM

B2: human zDHHC14 (Homo sapiens; L215S) (protein)
chain: B1 chain with L215S, Y373A
notes: as for B1
- Km [2]: 4.46 ± 2.66 µM
